From the supplement of paper PMC10126150
± gives the standard deviation of the averaged measurements.

System: ATP
Experiment: switch fluorescence ratio, 500 uM ATP over buffer (Cy3 cluster intensity, sum of 5 cycles each) (fold (ratio)); higher = stronger signal-on switching upon ATP binding; sequences stand for … in TCGTCGGCAGCGTCAGATGTGTATAAGAGACAGTTTTTTTTTTTTTTTTTTTTTTTTT…TC
Conditions: aptamer strand: ATP DNA aptamer (quencher-CACCTGGGGGAGTATTGCGGAGGAAGG + anchor), 100 nM annealed; ATP concentration: 500 uM
Procedure, shortened: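 Clusters carrying Cy3-labelled switching strands on a modified Illumina MiSeq flow-cell were annealed to 100 nM quencher-labelled ATP aptamer and imaged in selection buffer. They were imaged again after 15 min with 500 uM ATP at 22 °C, over five buffer/ATP cycles with NaOH stripping and re-annealing in between. For each cluster, the fluorescence ratio is the summed Cy3 intensity of the target cycles divided by that of the buffer cycles, averaged per switch-domain sequence. Clusters outside 100-1000 RFU were left out.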
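Note: ATP exposure 15 min at 22 °C before imaging.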

Sequence | switch fluorescence ratio
GAGATTGGGT | 1.001 ± 0.0077
GAGATTTTTT | 1.018 ± 0.0091
GAGCAATTTT | 2.31 ± 0.15
GAGCACAGGT | 2.33 ± 0.12
GAGCACGTAT | 1.03 ± 0.063
GAGCCACCAC | 1.051 ± 0.002
GAGCCCTCGG | 0.999 ± 0.023
GAGCCGGGCC | 0.99 ± 0.023
GAGCGAGAAG | 1.01 ± 0.028
GAGCGATGTC | 1.07 ± 0.035
GAGCGCCCGT | 1.01 ± 0.0017
GAGCGCCGGG | 1.01 ± 0.017
GAGCGGGGGT | 1.01 ± 0.013
GAGCTAGGAG | 1 ± 0.024
GAGCTGGGGA | 0.983 ± 0.012
GAGCTTGCGA | 1.03 ± 0.044
GAGCTTTGAT | 0.996 ± 0.024
GAGCTTTGTT | 0.984 ± 0.018
GAGCTTTTGA | 0.971 ± 0.04
GAGGAAAGGC | 0.999 ± 0.058
GAGGAACGTG | 0.967 ± 0.014
GAGGAAGCGA | 1.18 ± 0.059
GAGGACTTAG | 0.989 ± 0.022
GAGGAGAAGA | 1.02 ± 0.027
GAGGAGAATT | 0.983 ± 0.018

Sequence | switch fluorescence ratio
GAGGAGACGT | 1.03 ± 0.019
GAGGAGCGGT | 1 ± 0.017
GAGGAGGCCA | 0.9828 ± 0.0053
GAGGAGGGGA | 1.01 ± 0.018
GAGGATGGGT | 0.933 ± 0.024
GAGGATTATT | 0.9694 ± 0.0059
GAGGATTGAC | 1 ± 0.038
GAGGCAAAG | 2.87 ± 2.4
GAGGCAAAGT | 1.094 ± 0.0059
GAGGCAAGGT | 1.65 ± 0.092
GAGGCACGG | 1.0469 ± 0.00025
GAGGCAGAGT | 1.04 ± 0.023
GAGGCATATA | 1.9 ± 0.29
GAGGCCGCTA | 1.84 ± 0.043
GAGGCGCATC | 1 ± 0.026
GAGGCGCTTA | 0.961 ± 0.011
GAGGCGGCTG | 0.994 ± 0.038
GAGGCGGGTG | 1.01 ± 0.013
GAGGCTGGTA | 0.98 ± 0.028
GAGGCTGTTT | 1.01 ± 0.035
GAGGGAATGG | 1.07 ± 0.061
GAGGGAATTA | 1.06 ± 0.11
GAGGGACTGG | 0.988 ± 0.084
GAGGGACTTG | 0.98 ± 0.012
GAGGGCACGC | 0.968 ± 0.06

Sequence | switch fluorescence ratio
GAGGGCCGCG | 0.997 ± 0.051
GAGGGCCGGG | 0.995 ± 0.068
GAGGGCGGCA | 1.02 ± 0.036
GAGGGCGTAA | 1.06 ± 0.035
GAGGGCTGAG | 0.985 ± 0.02
GAGGGGAAGT | 0.9982 ± 0.004
GAGGGGAGGT | 0.974 ± 0.025
GAGGGGATTG | 0.986 ± 0.047
GAGGGGCCTA | 0.968 ± 0.021
GAGGGGCGAT | 0.998 ± 0.013
GAGGGGGGAG | 0.986 ± 0.027
GAGGGGGTAG | 0.997 ± 0.033
GAGGGGGTCA | 1.02 ± 0.029
GAGGGGGTTT | 0.99 ± 0.018
GAGGGGTAAG | 1 ± 0.015
GAGGGGTACT | 1.025 ± 0.0042
GAGGGGTGTG | 0.993 ± 0.029
GAGGGGTTAG | 0.978 ± 0.014
GAGGGTAATC | 1.004 ± 0.01
GAGGGTAGAG | 1.01 ± 0.042
GAGGGTCCTA | 0.9994 ± 0.0054
GAGGGTGCAG | 1.004 ± 0.0043
GAGGGTGTAA | 1.001 ± 0.01
GAGGGTTTTG | 0.9768 ± 0.0092
GAGGTAAGGT | 1 ± 0.015

Sequence | switch fluorescence ratio
GAGGTAGGCC | 1.048 ± 0.0066
GAGGTAGTCA | 1.0112 ± 0.00047
GAGGTATGTG | 0.997 ± 0.023
GAGGTATTTG | 1.02 ± 0.037
GAGGTCCAGC | 1.14 ± 0.074
GAGGTGAGAC | 1.06 ± 0.13
GAGGTGGGGC | 1.05 ± 0.028
GAGGTGTGAG | 1.03 ± 0.018
GAGGTGTGTT | 0.996 ± 0.02
GAGGTTGATG | 1.01 ± 0.02
GAGGTTGCCG | 0.951 ± 0.018
GAGGTTGTTA | 0.993 ± 0.032
GAGGTTTAAG | 0.957 ± 0.052
GAGGTTTAAT | 0.981 ± 0.039
GAGGTTTTAT | 0.987 ± 0.054
GAGGTTTTGG | 1.03 ± 0.057
GAGTAAGAGG | 0.989 ± 0.059
GAGTAAGGGT | 0.99 ± 0.024
GAGTAAGTTT | 1.012 ± 0.0081
GAGTACACGT | 0.9813 ± 0.0061
GAGTACGGGA | 1.09 ± 0.059
GAGTAGGAAG | 0.961 ± 0.05
GAGTAGGCGC | 0.955 ± 0.032
GAGTAGTATT | 1 ± 0.02
GAGTATTTAG | 0.9801 ± 0.0093

Sequence | switch fluorescence ratio
GAGTATTTTG | 0.953 ± 0.026
GAGTCAACGG | 1.027 ± 0.0071
GAGTCACGGA | 1.01 ± 0.046
GAGTCGGGTA | 1.028 ± 0.0097
GAGTCTAAGT | 0.996 ± 0.026
GAGTCTGGGA | 1.032 ± 0.0051
GAGTCTGTGC | 1.02 ± 0.043
GAGTCTTATA | 1.01 ± 0.031
GAGTCTTTTA | 0.959 ± 0.013
GAGTGAAGGA | 1.03 ± 0.065
GAGTGACCGA | 1.01 ± 0.02
GAGTGACTTG | 1.017 ± 0.0089
GAGTGAGTCG | 0.981 ± 0.022
GAGTGCTGGG | 1.01 ± 0.011
GAGTGCTGTT | 1.024 ± 0.01
GAGTGGAAGC | 0.964 ± 0.051
GAGTGGAATA | 1.002 ± 0.0083
GAGTGGGATG | 0.9633 ± 0.0035
GAGTGGGGGG | 0.976 ± 0.043
GAGTGGGTTA | 1.03 ± 0.012
GAGTGGGTTT | 0.999 ± 0.03
GAGTGTACGT | 1.01 ± 0.052
GAGTTAAGGG | 1.007 ± 0.0018
GAGTTAATGT | 1.01 ± 0.043
GAGTTAATTG | 1.01 ± 0.043

Sequence | switch fluorescence ratio
GAGTTATATT | 0.985 ± 0.025
GAGTTATGGT | 1.02 ± 0.044
GAGTTATTTA | 0.982 ± 0.027
GAGTTCAGGA | 1 ± 0.021
GAGTTCCCGA | 0.977 ± 0.048
GAGTTCCGGG | 1.01 ± 0.024
GAGTTCGCGG | 1.034 ± 0.01
GAGTTCGGGG | 0.987 ± 0.014
GAGTTGAGAT | 0.9871 ± 0.007
GAGTTGCAGG | 1.01 ± 0.032
GAGTTGGGAA | 1.04 ± 0.077
GAGTTGGGGT | 0.986 ± 0.018
GAGTTGTCTT | 0.9538 ± 0.0062
GAGTTTATAT | 1.01 ± 0.017
GAGTTTTGAA | 0.997 ± 0.018
GATAAACAAT | 1.19 ± 0.28
GATAAATCGG | 0.981 ± 0.024
GATAACCTTT | 1.073 ± 0.0078
GATAAGAGTG | 1.02 ± 0.052
GATAAGGGTG | 1.07 ± 0.0053
GATAAGTCGT | 0.991 ± 0.032
GATAATAGGG | 0.99 ± 0.045
GATACAGTGC | 1.059 ± 0.002
GATACGTGTT | 0.998 ± 0.053
GATACTCGTG | 0.97 ± 0.032

Sequence | switch fluorescence ratio
GATACTGCGC | 1.16 ± 0.087
GATACTGGGG | 1.01 ± 0.028
GATAGAAATT | 1.01 ± 0.031
GATAGAATGA | 1.014 ± 0.0096
GATAGAGAGG | 1 ± 0.044
GATAGCCGAT | 1.031 ± 0.0015
GATAGGAAGG | 0.964 ± 0.052
GATAGGCAGG | 0.998 ± 0.019
GATAGGCGGG | 0.9795 ± 0.0094
GATAGGGGAT | 0.986 ± 0.031
GATAGTAAGG | 0.9795 ± 0.0075
GATAGTATGC | 0.961 ± 0.059
GATAGTATGT | 0.981 ± 0.023
GATAGTGAAA | 1.02 ± 0.035
GATATACAGC | 1.02 ± 0.017
GATATAGGGG | 1 ± 0.034
GATATCAGGA | 0.989 ± 0.027
GATATCATCT | 0.99 ± 0.042
GATATCCGAG | 1.05 ± 0.011
GATATGCGTT | 0.985 ± 0.031
GATATGGGCA | 1.04 ± 0.037
GATATGTGGG | 0.986 ± 0.031
GATATTGAAG | 0.974 ± 0.031
GATATTGGGG | 0.981 ± 0.033
GATATTGTCA | 1.04 ± 0.069

Sequence | switch fluorescence ratio
GATATTGTTT | 0.988 ± 0.019
GATATTTGA | 0.99448 ± 0.00073
GATATTTTCG | 1.01 ± 0.035
GATATTTTGG | 0.982 ± 0.025
GATCAAGGGG | 0.9939 ± 0.0078
GATCCAGGAG | 1.11 ± 0.047
GATCCGAGGG | 0.974 ± 0.018
GATCCGGCTT | 1.04 ± 0.035
GATCCGGGC | 1.05 ± 0.087
GATCCTAACG | 1.04 ± 0.048
GATCCTTTAT | 0.979 ± 0.02
GATCGATTTG | 0.998 ± 0.023
GATCGCTTGG | 1.04 ± 0.036
GATCGGAATA | 1.87 ± 0.091
GATCGGATTA | 0.999 ± 0.024
GATCGGCTTG | 0.984 ± 0.013
GATCGGGGCA | 0.97679 ± 0.00094
GATCGGGGGC | 1.06 ± 0.14
GATCGGTACG | 1 ± 0.011
GATCGTACAG | 1.04 ± 0.018
GATCTACAGC | 1.02 ± 0.024
GATCTACGGC | 1.07 ± 0.024
GATCTGTGGA | 0.95 ± 0.052
GATCTTAGGT | 0.996 ± 0.041
GATGAAATGG | 1.02 ± 0.013
